# From patent US20190194322A1 (BIO TECHNE, published 2019)
# B1: Recombinant human VSIG3 Fc Chimera (Fc fusion)
# chain: LEVSESPGSIQVARGQTAVLPCTFTTSAALINLNVIWMVTPLSNANQPEQVILYQGGQMFDGAPRFHGRVGFTGTMPATNVSIFINNTQLSDTGTYQCLVNNLPDIGGRNIGVTGLTVLVPPSAPHCQIQGSQDIGSDVILLCSSEEGIPRPTYLWEKLDNTLKLPPTATQDQVQGTVTIRNISALSSGLYQCVASNAIGTSTCLLDLQVISPQPRNIGLIAGIEGRMDPKSCDKTHTCPPCPAPEAEGAPSVFLFPPKPKDTLMISRTPEVTCVVVDVSHEDPEVKFNWYVDGVEVHNAKTKPREEQYNSTYRVVSVLTVLHQDWLNGKEYKCKVSNKALPAPIEKTISKAKGQPREPQVYTLPPSRDELTKNQVSLTCLVKGFYPSDIAVEWESNGQPENNYKATPPVLDSDGSFFLYSKLTVDKSRWQQGNVFSCSVMHEALHNHYTQKSLSLSPGK
# notes: also called rhVSIG3; rhVSIG-3
# Columns and labels:
# [1] = target: B1; test: SPR (Biacore), VSIG3-Fc immobilised, antibody as analyte (FIG. 14)
# Method: The affinity of these blocking antibodies to purified recombinant VSIG3 was measured by surface plasmon resonance (SPR) using a Biacore T200 in two assay orientations. […] Dilutions of antibody were then flowed over the surface and the double reference subtracted data fit to a 1:1 Langmuir binding model with Biacore T200 Evaluation Software version 3.1 (FIG. 14). In a separate assay, a fusion protein containing protein A/G/L (Novus Biologicals, Littleton, Colo.) was covalently immobilized to the surface of a CM5 chip by standard amine coupling chemistry. Antibody was captured, followed by dilutions of VSIG3 His-fusion. Double reference subtracted data were fit to a 1:1 Langmuir binding model as described above (FIG. 15).
# [2] = target: T1, VSIG3 ectodomain coupled to pentamerizing rat COMP helix and alkaline phosphatase (AVEXIS prey) (rat, UniProt Q5DX21 23-241; P35444 28-72); test: AVEXIS, VSIG8 Fc-fusion bait, VSIG3-COMP-AP prey (FIG. 12B)
# T1 construct: used as conditioned medium; also called VSIG3 oligomer as prey; penta-VSIG3; not shown: alkaline phosphatase enzyme
# T1 sequence (looked up): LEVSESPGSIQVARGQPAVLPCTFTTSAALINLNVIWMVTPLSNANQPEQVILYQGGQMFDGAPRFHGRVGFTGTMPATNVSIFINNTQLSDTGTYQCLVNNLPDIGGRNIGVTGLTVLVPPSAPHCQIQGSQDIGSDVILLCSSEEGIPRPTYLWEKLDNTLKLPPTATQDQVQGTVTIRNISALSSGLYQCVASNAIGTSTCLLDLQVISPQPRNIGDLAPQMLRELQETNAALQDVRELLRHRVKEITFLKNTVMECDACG
# Source text: (§1) FIG. 12B AVEXIS was used to screen interactions between VISTA and VSIG3, VSIG8, and PD1, and results were quantified by measuring absorbance at 650 nm using the alkaline phosphatase reagent BluePhos. […] FIG. 12C.
# (§2) The ectodomains of VSIG3, VISTA, and other immunoregulatory receptors were cloned into a construct containing the rat cartilage oligomeric matrix protein (COMP), which forms a covalent, pentameric coiled-coil helix oligomer (Malashkevich et al. Science. 274 (1996) 761-5), followed by an alkaline phosphatase enzyme for detection. […] Conditioned media containing the oligomeric prey protein fused to the COMP helical oligomer and alkaline phosphatase was incubated and washed, and the interaction was quantitatively measured by detection of alkaline phosphatase activity using the BLUEPHOS reagent (KPL/Sera Care, Milford, Mass.).
# [3] = target: T2, PD1 ectodomain coupled to pentamerizing rat COMP helix and alkaline phosphatase (AVEXIS prey) (rat, UniProt Q15116 25-170; P35444 28-72); test: AVEXIS, VSIG3 Fc-fusion bait, PD1-COMP-AP prey (FIG. 12B)
# T2 construct: not shown: alkaline phosphatase enzyme
# Source text: as §1, §2
# [4] = target: T3, Recombinant human VISTA Fc Chimera (human (homo sapiens)); test: ELISA, rhVISTA coated at 2 µg/mL, biotin-labelled rhVSIG3 titrated, streptavidin-HRP (FIG. 1A)
# T3 construct: also called rhVISTA; VISTA-Fc bait
# Source text: The non-specific binding is subtracted and in all cases was less than 5% of the total signal.
# [5] = target: T4, VSIG8 ectodomain coupled to pentamerizing rat COMP helix and alkaline phosphatase (AVEXIS prey) (rat, UniProt P0DPA2 22-263; P35444 28-72); test: AVEXIS, VSIG3 Fc-fusion bait, VSIG8-COMP-AP prey (FIG. 12B)
# T4 construct: not shown: alkaline phosphatase enzyme
# T4 sequence (looked up): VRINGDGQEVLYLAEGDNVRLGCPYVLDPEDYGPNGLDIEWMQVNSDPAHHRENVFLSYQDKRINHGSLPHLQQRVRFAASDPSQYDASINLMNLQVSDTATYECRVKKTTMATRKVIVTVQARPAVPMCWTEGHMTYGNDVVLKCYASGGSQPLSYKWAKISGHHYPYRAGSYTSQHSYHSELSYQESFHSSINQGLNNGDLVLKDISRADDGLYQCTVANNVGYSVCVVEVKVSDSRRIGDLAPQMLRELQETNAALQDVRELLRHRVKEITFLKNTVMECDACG
# Source text: as §1, §2
binder,measurement,setting,value
"mouse anti-human VSIG3 monoclonal antibody from clone #973428 (antibody, IgG1, V domains shown, also called fusion 9734 clone 28) VH: EVQLVESGGDLVKPGGSLKLSCAASGFTFNSYGMSWVRQTPDKRLEWVAIISSGGSYTYYPDSVKGRFTISRDNAKNTLYLQMSSLKSEDTAMYYCARLSYYYGSSPYAMDYWGQGTSVTISS VL: DIVLTQSPASLAVSLGQRATISCRASKSVSTSGYSYMHWYQQKPGQSPKLLIYLASNLESGVPARCSGSGSGTDFTLNIHPVEEEDAATYYCQHSRELPYTFGGGTKLEIKR",binding result,[1],binds
"VSIG8 Fc-fusion (AVEXIS bait) (Fc fusion, UniProt P0DPA2 22-263, looked up, extracellular domain; not shown: Fc) VRINGDGQEVLYLAEGDNVRLGCPYVLDPEDYGPNGLDIEWMQVNSDPAHHRENVFLSYQDKRINHGSLPHLQQRVRFAASDPSQYDASINLMNLQVSDTATYECRVKKTTMATRKVIVTVQARPAVPMCWTEGHMTYGNDVVLKCYASGGSQPLSYKWAKISGHHYPYRAGSYTSQHSYHSELSYQESFHSSINQGLNNGDLVLKDISRADDGLYQCTVANNVGYSVCVVEVKVSDSRRIG",binding result,[2],no binding
B1,binding result,[3],no binding
same,EC50,[4],~0.25 µg/mL
same,binding result,[5],no binding
"mouse anti-human VSIG3 monoclonal antibody from clone #973401 (antibody, IgG1, V domains shown, also called fusion 9734 clone 1) VH: QVQLQQSAAELARPGASVKMSCKASGYTFATYTIHWVKQRPGQGLEWIGYINPSSGYTEYNQKFKDKTTLTADKSSSTAYMQLSSLTSEDSAVYYCARREVYGSGSMDYWGQGTSVTVSS VL: QIVLTQSPALMSASPGEKVTMTCSASSSVSFMYWYHQKPRSSPKPWIYLTSNLASGVPARFSGSGSGTSYSLTISSMEAEDAATYYCQQWSSNPLTFGAGTKLELKR",binding result,[1],binds
